According to patent US20060286609A1 (BIOCHECK, published 2006):

Assays:
[1] = target: Human Id1: Histidine (human) (UniProt P41134); test: sandwich ELISA, 5-3-coated wells, human Id1:His 1.0 ng/ml, detected with rabbit polyclonal B-5133-HRP
[2] = target: Human Id1: Histidine (human) (UniProt P41134); test: ELISA, coated antigen, Ab 10.0 ug/ml
Mouse Id1: Histidine [3] = target: T1, Mouse Id1: Histidine (mouse, UniProt P20067-2 1-148); test: ELISA, coated antigen, Ab 1.00 ug/ml
T1 construct: E. coli fusion protein (vector pGW07); also called m-Id1-His; not shown: His-tag
T1 sequence: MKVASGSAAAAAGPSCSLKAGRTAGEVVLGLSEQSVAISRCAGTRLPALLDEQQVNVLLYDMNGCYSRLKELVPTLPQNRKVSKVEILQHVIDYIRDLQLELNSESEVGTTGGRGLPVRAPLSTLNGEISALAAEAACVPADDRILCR
Description: (§1) Incubate plates at 2-8° C. overnight (16-24 hours). [0145] 11. Shake off the BSA solution. [0146] 12. Dispense 250 μL of 2.5% sucrose solution into each well. [0147] 13. Incubate plates at 2-8° C. for 4 hours. [0148] 14. Shake off sucrose solution. [0149] 15. Dry in vacuum at room temperature overnight. Screening Method [0150] 1. Dispense 100 μL of antibody diluent, diluted rabbit polyclonal anti-Id1 into appropriate wells. […] 2. Incubate at room temperature with mechanical shaking at 750 rpm for 90 minutes. [0152] 3. Remove the incubation mixture by flicking plate content into an appropriate waste container, followed by rinsing the wells 5 times with distilled water. […] 4. Strike the wells sharply onto absorbent paper or paper towels to remove all residual water droplets. [0154] 5. Dispense 100 μL of Goat Anti-Rabbit IgG-HRP Conjugate Reagent into each well. Gently mix for 5 seconds. [0155] 6. Incubate at room temperature with mechanical shaking at 750 rpm for 90 minutes. […] 7. Repeat procedures 3 and 4. [0157] 8. Dispense 100 μL of TMB Reagent into each well. Gently mix for 5 seconds. [0158] 9. Incubate at room temperature with mechanical shaking at 750 rpm for 20 minutes. [0159] 10. Add 100 μL of Stop Solution (1N HCl) into each well. [0160] 11. Gently mix for 10 seconds to ensure a complete mixing. […] 12. Read optical density (absorbance) at 450 nm. Results from this assay were used to select the rabbit sera with the highest antibodies titer that selectively reacts with mouse Id1 or human Id1 or both.
(§2) A comparison was carried out between the reactivity of the rabbit monoclonal anti-mouse Id1, clone #BCH-1/#37-2, of this invention and the mouse monoclonal anti-mouse/human Id1 from BD Pharmingen with the following antigens prepared in Example 5: mouse Id1:His, human Id1:His, human Id2:His, human Id3:His, and GST. These antigens and protein were used to coat the wells.
(§3) Materials and methods were those described in Example 9 except (a) Pharmingen's mouse monoclonal anti-mouse Id1 was used in addition to the rabbit monoclonal anti-mouse Id1 (Example 10), and (b) goat anti-mouse IgG-HRP conjugate was used to process the wells treated with the Pharmingen monoclonal antibody and polyclonal goat anti-rabbit IgG-HRP conjugate was used to process wells treated with rabbit monoclonal anti-mouse Id1.

Human Id3: Histidine [4] = target: T2, Human Id3: Histidine (human, UniProt Q02535 1-119, limits assumed); test: ELISA, coated antigen, Ab 1.00 ug/ml
T2 construct: E. coli fusion protein (vector pGW07); also called h-Id3: His; not shown: His-tag
T2 sequence (looked up): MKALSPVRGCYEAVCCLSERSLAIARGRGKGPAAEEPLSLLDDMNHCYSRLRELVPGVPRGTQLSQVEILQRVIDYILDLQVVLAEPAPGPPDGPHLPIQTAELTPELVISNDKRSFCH
Description: as §1, §2, §3

Mouse Id1: Histidine [5] = target: T1, Mouse Id1: Histidine; test: ELISA, coated antigen, Ab 0.50 ug/ml
Description: as §1, §2, §3

[6] = target: T3, glutathione S-transferase (GST) (UniProt P08515 1-218 = GST); test: ELISA, coated antigen, Ab 0.50 ug/ml
T3 construct: Coated on wells as control for the fusion partner of the immunogen
T3 sequence (P08515 whole entry, the tested form may be a part): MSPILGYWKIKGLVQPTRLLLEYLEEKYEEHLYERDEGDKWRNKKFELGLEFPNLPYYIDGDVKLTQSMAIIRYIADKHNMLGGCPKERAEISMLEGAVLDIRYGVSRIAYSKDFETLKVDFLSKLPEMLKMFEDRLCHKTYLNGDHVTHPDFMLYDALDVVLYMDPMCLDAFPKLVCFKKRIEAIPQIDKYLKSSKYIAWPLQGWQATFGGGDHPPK
Description: as §1, §2, §3

Human Id3: Histidine [7] = target: T2, Human Id3: Histidine; test: ELISA, coated antigen, Ab 0.50 ug/ml
Description: as §1, §2, §3

Human Id2: Histidine = target: T4, Human Id2: Histidine (human, UniProt Q02363 1-134, limits assumed); test: ELISA, coated antigen, Ab 0.50 ug/ml
T4 construct: E. coli fusion protein (vector pGW07); also called h-Id2: His; not shown: His-tag
T4 sequence (looked up): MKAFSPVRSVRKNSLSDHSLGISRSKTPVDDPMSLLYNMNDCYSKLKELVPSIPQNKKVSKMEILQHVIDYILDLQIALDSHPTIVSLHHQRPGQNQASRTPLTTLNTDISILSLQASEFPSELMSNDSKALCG
Description: as §1, §2, §3

[8] = target: Human Id1: Histidine (human) (UniProt P41134); test: ELISA, coated antigen, Ab 1.00 ug/ml

Sequence of Human Id1: Histidine (human) (P41134 whole entry): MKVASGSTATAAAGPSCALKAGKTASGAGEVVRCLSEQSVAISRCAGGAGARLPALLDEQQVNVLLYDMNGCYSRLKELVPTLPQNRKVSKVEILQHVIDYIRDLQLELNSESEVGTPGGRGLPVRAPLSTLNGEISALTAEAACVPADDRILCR

Molecule: rabbit monoclonal anti-human Id1, clone #BCH-2/#5-3 (antibody)
- A450 [1]: 0.124 A450

B1: rabbit monoclonal anti-mouse Id1, clone #BCH-1/#37-2 (antibody, V domains shown)
VH: QSVEESGGRLVTPGTPLTLTCKVSGFDINSYAMDWFRQAPGKGLEWIGMMSTRGNTYYTSWAKGRFTISKTSSTTVDLKMTSLTTEDTATYFCARGGLWGPGTLVTVSS
VL: RVLTQTASPVSAAVGGTVTINCQASQSVYNGNRLGWYQLKPGQSPKELIHDASTLASGVPSRFRGSGSGTQFTLTINDVQCDDAATYYCVGSYACSTGDCNVFGGGTEVVVK
notes: Rabbit IgG from hybridoma, Protein G purified; also called m Id1 MoAb 37-2; Rabbit Monoclonal Anti-Mouse Id1 (#37-2)
- A450 [2]: 0.194 A450
- A450 (Mouse Id1: Histidine [3]): 2.88 A450
- A450 (Human Id3: Histidine [4]): 0.063 A450
- A450 (Mouse Id1: Histidine [5]): 2.46 A450
- A450 [6]: 0.053 A450
- A450 (Human Id3: Histidine [7]): 0.052 A450
- A450 (Human Id2: Histidine): 0.052 A450
- A450 [8]: 0.113 A450
